Laboratory results reported in the supplement of paper PMC10126150.
± gives the standard deviation of the averaged measurements.
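Note: ATP exposure 15 min at 22 °C before imaging.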

These sequences were tested on ATP (assay: switch fluorescence ratio, 500 uM ATP over buffer (Cy3 cluster intensity, sum of 5 cycles each) (fold (ratio)); higher = stronger signal-on switching upon ATP binding; sequences stand for … in TCGTCGGCAGCGTCAGATGTGTATAAGAGACAGTTTTTTTTTTTTTTTTTTTTTTTTT…TC). Details: aptamer strand: ATP DNA aptamer (quencher-CACCTGGGGGAGTATTGCGGAGGAAGG + anchor), 100 nM annealed; ATP concentration: 500 uM.
In short: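 The quencher-labelled ATP aptamer, at 100 nM, was annealed to Cy3-labelled switching-strand clusters on a modified Illumina MiSeq flow-cell. The clusters were imaged in selection buffer, then after 15 min with 500 uM ATP at 22 °C, and this buffer/ATP cycle ran five times with NaOH stripping and re-annealing between runs. Per-cluster fluorescence ratios, summed target-cycle over summed buffer-cycle Cy3 intensity, were averaged per switch-domain sequence. Clusters outside 100-1000 RFU were excluded.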
AAACGGTTAC showed a switch fluorescence ratio of 1.24 ± 0.038.
In the case of AAACTATGGA, the switch fluorescence ratio is reported as 0.961 ± 0.022.
Sequence AAACTGGAAA has a switch fluorescence ratio of 0.99 ± 0.016.
In the case of AAACTGGAG, the switch fluorescence ratio is reported as 1.04 ± 0.053.
AAACTGGTAT was tested, and the switch fluorescence ratio was 0.982 ± 0.02.
For AAACTGTTTC, the switch fluorescence ratio was 1.02 ± 0.016.
Work on AAACTTAATC yielded a switch fluorescence ratio of 1.04 ± 0.05.
Sequence AAACTTGGCT has a switch fluorescence ratio of 1.024 ± 0.0074.
Work on AAACTTTAGT yielded a switch fluorescence ratio of 0.987 ± 0.018.
AAAGAAAGAT was tested, and the switch fluorescence ratio was 1.08 ± 0.17.
With AAAGAAAGTC the switch fluorescence ratio was 1.043 ± 0.006.
Sequence AAAGAAGACG has a switch fluorescence ratio of 1.0319 ± 0.00064.
For AAAGAATTTC, the switch fluorescence ratio was 0.981 ± 0.038.
AAAGACAAAT gave a switch fluorescence ratio of 0.999 ± 0.042.
AAAGAGAATA was tested, and the switch fluorescence ratio was 0.987 ± 0.036.
For AAAGAGACGC, the switch fluorescence ratio was 1.03 ± 0.068.
AAAGAGAGAA gave a switch fluorescence ratio of 0.9998 ± 0.0093.
Sequence AAAGAGAGTT has a switch fluorescence ratio of 0.9964 ± 0.0065.
With AAAGAGTCGT the switch fluorescence ratio was 0.9883 ± 0.0027.
Work on AAAGAGTGAA yielded a switch fluorescence ratio of 0.9989 ± 0.009.
In the case of AAAGAGTGAT, the switch fluorescence ratio is reported as 1.022 ± 0.0062.
In the case of AAAGATATC, the switch fluorescence ratio is reported as 0.984 ± 0.02.
In the case of AAAGATGAGG, the switch fluorescence ratio is reported as 0.974 ± 0.029.
Work on AAAGCAGGTA yielded a switch fluorescence ratio of 0.989 ± 0.029.
AAAGCAGTAT was tested, and the switch fluorescence ratio was 1.14 ± 0.068.
AAAGCCGCTG gave a switch fluorescence ratio of 1.02 ± 0.033.
In the case of AAAGCCGTAG, the switch fluorescence ratio is reported as 1.003 ± 0.0082.
With AAAGCGAAGG the switch fluorescence ratio was 1.01 ± 0.044.
With AAAGCTCGTA the switch fluorescence ratio was 1.06 ± 0.054.
AAAGCTGGGA was tested, and the switch fluorescence ratio was 1.01 ± 0.019.
For AAAGCTTATT, the switch fluorescence ratio was 0.99822 ± 0.00097.
In the case of AAAGCTTGAT, the switch fluorescence ratio is reported as 1.01 ± 0.02.
AAAGCTTTTC was tested, and the switch fluorescence ratio was 1.07 ± 0.01.
In the case of AAAGGACGAG, the switch fluorescence ratio is reported as 0.983 ± 0.019.
For AAAGGAGAGG, the switch fluorescence ratio was 1.01 ± 0.05.
AAAGGAGGTC was tested, and the switch fluorescence ratio was 1.05 ± 0.033.
Work on AAAGGAGGTT yielded a switch fluorescence ratio of 1 ± 0.028.
AAAGGATAAT was tested, and the switch fluorescence ratio was 1.01 ± 0.0077.
AAAGGATAGC showed a switch fluorescence ratio of 1.017 ± 0.0044.
AAAGGCGGTG showed a switch fluorescence ratio of 0.976 ± 0.023.
In the case of AAAGGGAGAT, the switch fluorescence ratio is reported as 1.027 ± 0.0085.
Sequence AAAGGGAGGA has a switch fluorescence ratio of 1.02 ± 0.036.
In the case of AAAGGGAGTA, the switch fluorescence ratio is reported as 0.999 ± 0.041.
AAAGGGCCAG gave a switch fluorescence ratio of 1.02 ± 0.02.
For AAAGGGCGCA, the switch fluorescence ratio was 1.02 ± 0.017.
With AAAGGGCTGT the switch fluorescence ratio was 1.01 ± 0.043.
AAAGGGGAGT was tested, and the switch fluorescence ratio was 1.04 ± 0.11.
AAAGGGGGAG was tested, and the switch fluorescence ratio was 0.997 ± 0.011.
In the case of AAAGGGGGTT, the switch fluorescence ratio is reported as 1.04 ± 0.042.
AAAGGGGTTA gave a switch fluorescence ratio of 1 ± 0.024.
Work on AAAGGGTAAC yielded a switch fluorescence ratio of 0.988 ± 0.036.
In the case of AAAGGGTGGG, the switch fluorescence ratio is reported as 1.01 ± 0.013.
For AAAGGTACGT, the switch fluorescence ratio was 0.987 ± 0.021.
AAAGGTAGAG was tested, and the switch fluorescence ratio was 1.01 ± 0.04.
Sequence AAAGGTCTGG has a switch fluorescence ratio of 0.9794 ± 0.0049.
In the case of AAAGGTTCAA, the switch fluorescence ratio is reported as 1.03 ± 0.011.
AAAGGTTTGT showed a switch fluorescence ratio of 1.02 ± 0.024.
With AAAGTAGACA the switch fluorescence ratio was 1.005 ± 0.0063.
With AAAGTCTAAA the switch fluorescence ratio was 0.977 ± 0.015.
AAAGTCTCGT was tested, and the switch fluorescence ratio was 0.972 ± 0.018.
With AAAGTGATTA the switch fluorescence ratio was 1.01 ± 0.022.
Work on AAAGTGGTTC yielded a switch fluorescence ratio of 1.04 ± 0.053.
For AAAGTGTGTT, the switch fluorescence ratio was 0.993 ± 0.025.
AAAGTTAATA showed a switch fluorescence ratio of 0.9897 ± 0.0064.
In the case of AAAGTTACGT, the switch fluorescence ratio is reported as 1.01 ± 0.044.
For AAAGTTCGGG, the switch fluorescence ratio was 0.982 ± 0.033.
With AAAGTTGCAG the switch fluorescence ratio was 1.02 ± 0.023.
With AAAGTTGTCT the switch fluorescence ratio was 1.01 ± 0.028.
AAAGTTTGCG gave a switch fluorescence ratio of 1.04 ± 0.11.
Sequence AAATAAAGCT has a switch fluorescence ratio of 1.07 ± 0.073.
For AAATAAATTT, the switch fluorescence ratio was 1.01 ± 0.055.
Work on AAATAACTAG yielded a switch fluorescence ratio of 0.99 ± 0.015.
With AAATAACTTT the switch fluorescence ratio was 1.027 ± 0.0051.
In the case of AAATAATGCA, the switch fluorescence ratio is reported as 0.9863 ± 0.0076.
AAATAATGGT was tested, and the switch fluorescence ratio was 1.02 ± 0.041.
AAATAATGT showed a switch fluorescence ratio of 1.02 ± 0.016.
With AAATACCGTT the switch fluorescence ratio was 1.021 ± 0.0057.
